Publication doi:10.1101/815886

Assays:
[1] = target: CST wild type (CTC1-STN1-TEN1) (human, UniProt Q2NKJ3;Q9H668;Q86WV5 1-1217;1-368;1-123); experiment: cryo-EM
[2] = target: CST with CTC1 V967A/S979A/H980A (human, UniProt Q2NKJ3;Q9H668;Q86WV5 1-1217;1-368;1-123, V967A;S979A;H980A;CTC1:); experiment: EMSA
[3] = target: CST with CTC1 R1193E/R1195E (human, UniProt Q2NKJ3;Q9H668;Q86WV5 1-1217;1-368;1-123, R1193E;R1195E;CTC1:); experiment: EMSA
[4] = target: CST with CTC1 K743E/R744E (human, UniProt Q2NKJ3;Q9H668;Q86WV5 1-1217;1-368;1-123, K743E;R744E;CTC1:); experiment: EMSA
[5] = target: CST with CTC1 K1164E/K1167E (human, UniProt Q2NKJ3;Q9H668;Q86WV5 1-1217;1-368;1-123, K1164E;K1167E;CTC1:); experiment: EMSA
Sequence of CST with CTC1 K1164E/K1167E (Q2NKJ3 whole entry K1164E/K1167E, chain 1 of 3): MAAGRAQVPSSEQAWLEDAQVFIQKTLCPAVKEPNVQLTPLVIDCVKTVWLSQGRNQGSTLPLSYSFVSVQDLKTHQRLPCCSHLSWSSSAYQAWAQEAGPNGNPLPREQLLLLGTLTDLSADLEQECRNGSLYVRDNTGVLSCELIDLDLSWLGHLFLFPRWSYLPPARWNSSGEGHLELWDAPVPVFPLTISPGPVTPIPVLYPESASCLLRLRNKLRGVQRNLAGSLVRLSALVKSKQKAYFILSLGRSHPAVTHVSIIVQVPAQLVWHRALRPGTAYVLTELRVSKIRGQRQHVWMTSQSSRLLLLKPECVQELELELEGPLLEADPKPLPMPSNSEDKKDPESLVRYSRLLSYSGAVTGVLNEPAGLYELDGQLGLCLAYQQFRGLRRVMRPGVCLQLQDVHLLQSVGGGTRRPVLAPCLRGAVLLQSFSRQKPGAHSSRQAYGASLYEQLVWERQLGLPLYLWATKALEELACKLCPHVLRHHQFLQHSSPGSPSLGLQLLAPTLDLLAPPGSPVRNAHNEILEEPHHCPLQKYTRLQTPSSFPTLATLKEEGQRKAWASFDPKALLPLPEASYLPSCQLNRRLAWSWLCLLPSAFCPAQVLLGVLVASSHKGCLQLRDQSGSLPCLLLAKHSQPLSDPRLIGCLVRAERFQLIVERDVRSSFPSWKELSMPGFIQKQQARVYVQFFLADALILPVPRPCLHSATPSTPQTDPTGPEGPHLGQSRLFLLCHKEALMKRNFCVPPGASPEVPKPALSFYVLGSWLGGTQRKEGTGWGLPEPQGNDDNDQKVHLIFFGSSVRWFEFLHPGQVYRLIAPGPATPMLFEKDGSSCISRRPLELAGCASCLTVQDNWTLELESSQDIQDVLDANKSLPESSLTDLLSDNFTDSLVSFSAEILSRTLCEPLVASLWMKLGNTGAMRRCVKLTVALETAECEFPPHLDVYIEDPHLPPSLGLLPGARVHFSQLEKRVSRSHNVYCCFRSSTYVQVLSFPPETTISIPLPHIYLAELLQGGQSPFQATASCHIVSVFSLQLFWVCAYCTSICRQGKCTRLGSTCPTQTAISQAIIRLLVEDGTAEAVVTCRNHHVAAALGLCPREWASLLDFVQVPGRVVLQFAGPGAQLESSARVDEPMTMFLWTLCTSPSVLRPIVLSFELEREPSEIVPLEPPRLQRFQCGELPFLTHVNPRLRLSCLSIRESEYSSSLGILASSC
Sequence of CST with CTC1 K1164E/K1167E (Q9H668 whole entry, stated change not applied, chain 2 of 3): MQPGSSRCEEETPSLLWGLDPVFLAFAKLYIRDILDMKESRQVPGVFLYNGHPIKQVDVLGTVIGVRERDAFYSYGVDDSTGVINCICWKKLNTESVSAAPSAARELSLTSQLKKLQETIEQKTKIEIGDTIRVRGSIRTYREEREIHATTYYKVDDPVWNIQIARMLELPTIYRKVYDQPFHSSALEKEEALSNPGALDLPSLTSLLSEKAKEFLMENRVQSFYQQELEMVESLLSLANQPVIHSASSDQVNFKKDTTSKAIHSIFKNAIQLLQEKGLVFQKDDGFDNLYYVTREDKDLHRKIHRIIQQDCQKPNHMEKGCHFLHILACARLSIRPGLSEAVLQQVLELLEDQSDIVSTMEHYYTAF
Sequence of CST with CTC1 K1164E/K1167E (Q86WV5 whole entry, stated change not applied, chain 3 of 3): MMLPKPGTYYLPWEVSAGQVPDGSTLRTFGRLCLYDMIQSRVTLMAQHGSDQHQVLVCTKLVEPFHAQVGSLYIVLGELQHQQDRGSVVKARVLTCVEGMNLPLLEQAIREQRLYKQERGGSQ

Sequence of CST with CTC1 R1193E/R1195E (Q2NKJ3 whole entry R1193E/R1195E, chain 1 of 3): as the sequence (Q2NKJ3 whole entry K1164E/K1167E, chain 1 of 3) above, with E1164K, E1167K, R1193E, R1195E counted along it
Sequence of CST with CTC1 R1193E/R1195E (Q9H668 whole entry, stated change not applied, chain 2 of 3): as the sequence (Q9H668 whole entry, stated change not applied, chain 2 of 3) above
Sequence of CST with CTC1 R1193E/R1195E (Q86WV5 whole entry, stated change not applied, chain 3 of 3): as the sequence (Q86WV5 whole entry, stated change not applied, chain 3 of 3) above
Sequence of CST wild type (CTC1-STN1-TEN1) (Q2NKJ3 whole entry, chain 1 of 3): as the sequence (Q2NKJ3 whole entry K1164E/K1167E, chain 1 of 3) above, with E1164K, E1167K counted along it
Sequence of CST wild type (CTC1-STN1-TEN1) (Q9H668 whole entry, chain 2 of 3): as the sequence (Q9H668 whole entry, stated change not applied, chain 2 of 3) above
Sequence of CST wild type (CTC1-STN1-TEN1) (Q86WV5 whole entry, chain 3 of 3): as the sequence (Q86WV5 whole entry, stated change not applied, chain 3 of 3) above
Sequence of CST with CTC1 K743E/R744E (Q2NKJ3 whole entry K743E/R744E, chain 1 of 3): as the sequence (Q2NKJ3 whole entry K1164E/K1167E, chain 1 of 3) above, with K743E, R744E, E1164K, E1167K counted along it
Sequence of CST with CTC1 K743E/R744E (Q9H668 whole entry, stated change not applied, chain 2 of 3): as the sequence (Q9H668 whole entry, stated change not applied, chain 2 of 3) above
Sequence of CST with CTC1 K743E/R744E (Q86WV5 whole entry, stated change not applied, chain 3 of 3): as the sequence (Q86WV5 whole entry, stated change not applied, chain 3 of 3) above
Sequence of CST with CTC1 V967A/S979A/H980A (Q2NKJ3 whole entry V967A/S979A/H980A, chain 1 of 3): as the sequence (Q2NKJ3 whole entry K1164E/K1167E, chain 1 of 3) above, with V967A, S979A, H980A, E1164K, E1167K counted along it
Sequence of CST with CTC1 V967A/S979A/H980A (Q9H668 whole entry, stated change not applied, chain 2 of 3): as the sequence (Q9H668 whole entry, stated change not applied, chain 2 of 3) above
Sequence of CST with CTC1 V967A/S979A/H980A (Q86WV5 whole entry, stated change not applied, chain 3 of 3): as the sequence (Q86WV5 whole entry, stated change not applied, chain 3 of 3) above

B1: 3xTEL (ssDNA)
DNA: TTAGGGTTAGGGTTAGGG
B1: binds [1]; no binding [2]; no binding [3]. B1: binds [4]; no binding [5].
